Measured values taken from article PMC8231827, “A Novel Protein–Protein Interaction between RSK3 and IκBα and a New Binding Inhibitor That Suppresses Breast Cancer Tumorigenesis” (Cancers, 2021).

Biological target: T1, pBIND-IκBα (GAL4 DNA-binding domain fusion of IκBα) (UniProt P25963 1-317)
T1 construct: source: HEK293T, transfected, mammalian two-hybrid fusion
T1 sequence (looked up): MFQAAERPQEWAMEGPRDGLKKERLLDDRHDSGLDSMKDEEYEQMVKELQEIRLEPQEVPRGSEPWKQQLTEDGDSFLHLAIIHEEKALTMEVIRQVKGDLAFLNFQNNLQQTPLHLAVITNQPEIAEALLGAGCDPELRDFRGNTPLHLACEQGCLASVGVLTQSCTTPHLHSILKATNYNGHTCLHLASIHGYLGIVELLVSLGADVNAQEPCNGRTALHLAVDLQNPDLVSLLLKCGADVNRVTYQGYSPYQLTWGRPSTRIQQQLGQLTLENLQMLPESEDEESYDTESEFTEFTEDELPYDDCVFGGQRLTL
Test: two-hybrid; mammalian two-hybrid (CheckMate, Promega) in HEK293T: pBIND-IκBα (GAL4), pACT-RSK3 (VP16), pG5luc; firefly luciferase normalised to renilla, 24 h after transfection; also with RSK3I added 4 h after transfection
Details: partners not purified

B1: pACT-RSK3 (VP16 activation domain fusion of RSK3) (natural protein, UniProt Q15349 1-733, looked up)
chain: MDLSMKKFAVRRFFSVYLRRKSRSKSSSLSRLEEEGVVKEIDISHHVKEGFEKADPSQFELLKVLGQGSYGKVFLVRKVKGSDAGQLYAMKVLKKATLKVRDRVRSKMERDILAEVNHPFIVKLHYAFQTEGKLYLILDFLRGGDLFTRLSKEVMFTEEDVKFYLAELALALDHLHSLGIIYRDLKPENILLDEEGHIKITDFGLSKEAIDHDKRAYSFCGTIEYMAPEVVNRRGHTQSADWWSFGVLMFEMLTGSLPFQGKDRKETMALILKAKLGMPQFLSGEAQSLLRALFKRNPCNRLGAGIDGVEEIKRHPFFVTIDWNTLYRKEIKPPFKPAVGRPEDTFHFDPEFTARTPTDSPGVPPSANAHHLFRGFSFVASSLIQEPSQQDLHKVPVHPIVQQLHGNNIHFTDGYEIKEDIGVGSYSVCKRCVHKATDTEYAVKIIDKSKRDPSEEIEILLRYGQHPNIITLKDVYDDGKFVYLVMELMRGGELLDRILRQRYFSEREASDVLCTITKTMDYLHSQGVVHRDLKPSNILYRDESGSPESIRVCDFGFAKQLRAGNGLLMTPCYTANFVAPEVLKRQGYDAACDIWSLGILLYTMLAGFTPFANGPDDTPEEILARIGSGKYALSGGNWDSISDAAKDVVSKMLHVDPHQRLTAMQVLKHPWVVNREYLSPNQLSRQDVHLVKGAMAATYFALNRTPQAPRLEPVLSSNLAQRRGMKRLTSTRL
notes: RSK3 (RPS6KA2) cloned into pACT; source: HEK293T, transfected, mammalian two-hybrid fusion
fold luciferase activity over the pBind-IκBα vector-only control: ~3 fold
